Experimental findings from patent US11306156 are described below.

The target of experiment [1] is D3H44 Fab heavy chain L124E_L143E_K145T, C-terminal ABD2-His6 tag. In words: LCCA set 9316 (co-expression; SPR read-out of light-chain tags; L1:L2 DNA 1:3, normalized to 1:1); competing light chain m17.
For experiment [2] the target is unchanged. In words: LCCA (co-expression, SPR read-out of light chain tags), L1:L2 DNA 1:3 normalised to 1:1; competitor m13.
Experiment [3] deals with D3H44 Fab heavy chain L124R_Q179K, C-terminal ABD2-His6 tag. The description is as above.
Experiment [4] has as its target D3H44 Fab heavy chain L124E_L143E_K145M, C-terminal ABD2-His6 tag. Described as above.
The target is the same in experiment [5]. The experiment in a line: LCCA set 9266 (co-expression; SPR read-out of light-chain tags; L1:L2 DNA 1:3, normalized to 1:1); competing light chain m17.
For experiment [6], the target named is D3H44 Fab heavy chain L124R_S186R, C-terminal ABD2-His6 tag. The experiment in a line: LCCA set 9550 (co-expression; SPR read-out of light-chain tags; L1:L2 DNA 1:3, normalized to 1:1); competing light chain m14.
Experiment [7] addresses D3H44 Fab heavy chain L124E_L143E_K145T, C-terminal ABD2-His6 tag. In words: LCCA set 9320 (co-expression; SPR read-out of light-chain tags; L1:L2 DNA 1:3, normalized to 1:1); competing light chain m18.
Experiment [8] has as its target D3H44 Fab heavy chain L124R_Q179K, C-terminal ABD2-His6 tag. The experiment in a line: LCCA set 9388 (co-expression; SPR read-out of light-chain tags; L1:L2 DNA 1:3, normalized to 1:1); competing light chain m17.
The target in experiment [9] is D3H44 Fab heavy chain L124R_S186K, C-terminal ABD2-His6 tag. The experiment in a line: LCCA set 9488 (co-expression; SPR read-out of light-chain tags; L1:L2 DNA 1:3, normalized to 1:1); competing light chain m18.
Experiment [10] has as its target D3H44 Fab heavy chain L124E_L143D_K145T, C-terminal ABD2-His6 tag. In words: LCCA (co-expression, SPR read-out of light chain tags), L1:L2 DNA 1:3 normalised to 1:1; competitor m16.
Experiment [11] concerns the target D3H44 Fab heavy chain L124R_S186K, C-terminal ABD2-His6 tag. The description is as above.
Experiment [12] deals with D3H44 Fab heavy chain L124E_L143E_K145M, C-terminal ABD2-His6 tag. The experiment is described as above.
The target in experiment [13] is D3H44 Fab heavy chain L124E_L143E_K145T, C-terminal ABD2-His6 tag. The experiment in a line: LCCA set 9323 (co-expression; SPR read-out of light-chain tags; L1:L2 DNA 1:3, normalized to 1:1); competing light chain m14.
Experiment [14] has the same target. The experiment in a line: LCCA co-expression, SPR tag read-out; DNA 1:3 norm. to 1:1; competing light chain m13.
In experiment [15] the target is D3H44 Fab heavy chain L124E_L143D_K145T, C-terminal ABD2-His6 tag. Described as above.
The target of experiment [16] is D3H44 Fab heavy chain L124R_Q179K, C-terminal ABD2-His6 tag. The experiment is described as above.
The target in experiment [17] is D3H44 Fab heavy chain L124R_S186K, C-terminal ABD2-His6 tag. Described as above.
The target in experiment [18] is D3H44 Fab heavy chain L124E_L143E_K145M, C-terminal ABD2-His6 tag. Described as above.
Experiment [19] deals with D3H44 Fab heavy chain L124E_L143D_K145M, C-terminal ABD2-His6 tag. In words: LCCA set 9202 (co-expression; SPR read-out of light-chain tags; L1:L2 DNA 1:3, normalized to 1:1); competing light chain m13.
Experiment [20] concerns the target D3H44 Fab heavy chain L124R_S186R, C-terminal ABD2-His6 tag. The experiment in a line: LCCA set 9544 (co-expression; SPR read-out of light-chain tags; L1:L2 DNA 1:3, normalized to 1:1); competing light chain m13.
Experiment [21] deals with D3H44 Fab heavy chain L124E_L143E_K145T, C-terminal ABD2-His6 tag. In words: LCCA co-expression, SPR tag read-out; DNA 1:3 norm. to 1:1; competing light chain m7.
Experiment [22] addresses D3H44 Fab heavy chain L124R_Q179K, C-terminal ABD2-His6 tag. Described as above.
In experiment [23] the target is D3H44 Fab heavy chain L124R_S186R, C-terminal ABD2-His6 tag. The experiment in a line: LCCA co-expression, SPR tag read-out; DNA 1:3 norm. to 1:1; competing light chain m8.
Experiment [24] addresses D3H44 Fab heavy chain L124E_L143E_K145T, C-terminal ABD2-His6 tag. The experiment is described as above.
Experiment [25] has as its target D3H44 Fab heavy chain L124R_Q179K, C-terminal ABD2-His6 tag. The experiment is described as above.
Experiment [26] concerns the target D3H44 Fab heavy chain L124R_S186K, C-terminal ABD2-His6 tag. In words: LCCA set 9488 (co-expression; SPR read-out of light-chain tags; L1:L2 DNA 1:3, normalized to 1:1); competing light chain m9.
Experiment [27] addresses D3H44 Fab heavy chain L124R_S186R, C-terminal ABD2-His6 tag. In words: LCCA (co-expression, SPR read-out of light chain tags), L1:L2 DNA 1:3 normalised to 1:1; competitor m8.
Experiment [28] has as its target D3H44 Fab heavy chain L124E_L143E_K145T, C-terminal ABD2-His6 tag. The experiment is described as above.
Experiment [29] deals with D3H44 Fab heavy chain L124R_S186K, C-terminal ABD2-His6 tag. The description is as above.
Experiment [30] deals with D3H44 Fab heavy chain L124E_L143E_K145T, C-terminal ABD2-His6 tag. The experiment in a line: LCCA set 9320 (co-expression; SPR read-out of light-chain tags; L1:L2 DNA 1:3, normalized to 1:1); competing light chain m9.
Experiment [31] deals with D3H44 Fab heavy chain L124E_L143D_K145T, C-terminal ABD2-His6 tag. The experiment in a line: LCCA set 9240 (co-expression; SPR read-out of light-chain tags; L1:L2 DNA 1:3, normalized to 1:1); competing light chain m13.

For the substance “D3H44 light chain Q124K_V133G_S176R_T178R, N-terminal HA or FLAG tag”, the H1L1:H1L2 normalized median ratio (H1L1 part) came out at 88% in [1], 84% in [5], 86% in experiment [7] and 91% in experiment [13]. For the same substance, the H1L1:H1L2 normalized median scalar value ln(r1/f1) was determined as 2 in experiment [1]; 2.15 in [2]; 1.9 in [4]; 1.67 in experiment [5]; 1.82 in experiment [7]; 2.34 in experiment [13]. The H1L1:H1L2 normalized median scalar value ln(r1/f1) in experiment [14] worked out at 2.34. Besides, the H1L1:H1L2 normalized median ratio in [2] is 90%; in experiment [4] it was 87%; in [10], 87%; in experiment [12], 88%. Besides, the H2L2:H2L1 normalized median ratio in experiment [3] and in [11] was 7% in each case. Moreover, the H2L2:H2L1 normalized median ratio (H2L1 part) in experiment [6] was 11%; in experiment [8], 8%; in [9], 9%. Moreover, the H1L1:H1L2 normalized median ratio (% (ratio normalized to 100)) in experiment [14] was 91; in experiment [15], 87; in experiment [18], 88. The H2L2:H2L1 normalized median ratio (% (ratio normalized to 100)) is 5 in [16] and 7 in [17].
For “D3H44 light chain V133G_S176D_T178E_T180E, N-terminal HA or FLAG tag”, the H1L1:H1L2 normalized median ratio (H1L2 part) in [19] came to 16%; in experiment [30] it was 14%; in experiment [31], 13%. The H2L2:H2L1 normalized median ratio (H2L2 part) turned out to be 92% in experiment [20] and 91% in [26]. Further, the H1L1:H1L2 normalized median ratio (% (ratio normalized to 100)) in [21] turned out to be 6; in experiment [24], 5. Also, the H2L2:H2L1 normalized median ratio (% (ratio normalized to 100)) is 90 in [22], 91 in experiment [23] and 90 in experiment [25]. In addition, the H2L2:H2L1 normalized median ratio was found to be 94% in experiment [27] and 93% in experiment [29]. Moreover, the H1L1:H1L2 normalized median ratio in experiment [28] came out at 13%.
